Patent publication US9803013B2, “Biological materials and uses thereof” (BioInvent International AB, priority 2005, dated 2017)

What was measured:
DU145 cells = experiment: Apoptosis induction in carcinoma cells (cross-linked IgG, 16-24 hours, Annexin V/PI); format: cell-based, human
Experimental: (§1) The prostate carcinoma cell line PC-3 was grown in Complete Growth Medium (RPMI 1640, supplemented with 10% FCS, 10 mM HEPES, and 2 mM L-Glutamine) to 80% confluency in a 6 well plate. The prostate carcinoma cell line DU145 was grown in MEM with Earl's salts, supplemented with 10% FCS, 1 mM sodium pyruvate, and 1 mM non-essential amino acids and the derivate of a melanoma cell line MDA MB 435 was grown in DMEM supplemented with 10% FCS.
(§2) For apoptosis assays cells were washed in PBS and serially diluted B11 IgG1 (or B1 IgG1, Trastuzumab or negative antibody control for controls) was added to individual wells and binding was allowed during a 1-2 h incubation at 4° C. The cells were washed and Complete Growth Medium was added, containing cross-linking antibody, Fab′2 Goat anti-Human Fab′2, at 10 μg/ml. Cells were incubated in a humidified atmosphere, with 5% CO2 at 37° C., for 16-24 hours. Cells were collected by trypsination and stained with Alexa Fluor 488-Annexin V (AF488-AV) and propidium iodide (PI), according to manufacturer's instructions. The percentage apoptotic cells was determined by the formula: % apoptotic cells=100−% AF488−AV/PI−/−.
(§3) Cells were seeded in 6 well plates with Complete Growth Medium three days before the onset of the experiment.

MDA MB 435 cells = experiment: as above; format: cell-based, human; conditions: MDA MB 435, cross-linked IgG
Experimental: as §1, §2, §3

[1] = test system: human peripheral blood B cells; experiment: Direct cytotoxic effects (PCD, ADCC, CDC) on normal cells; format: cell-based; conditions: antibody cross-linked or not
Experimental: All experiments were performed in triplicate.
Target cells were harvested as described above (under ADCC heading) and incubated with antibodies at 5 μg/mL for 60 min on ice and then washed. Human serum, normal or heat-inactivated (Sigma, Sweden), was added to tubes and the samples were incubated for 2 hr at 37° C. After completion of incubation, ToPo-Pro-3 (Invitrogen) was added at a final concentration of 0.3 μM and cells were analyzed for membrane permeabilization using flow cytometry.

EJM = experiment: SCID/xenograft MM model, subcutaneous; format: in vivo, mouse; conditions: EJM (ICAM-1+), 2 mg/kg twice weekly from one day after tumor cell injection
Experimental: (§4) Since high expression of the BI-505 epitope in human MM was found, BI-505 was screened for in vivo anti-myeloma activity using SCID/xenograft models comprising four well-characterized MM cell-lines. […] Twice weekly dosing with 2 mg/kg of BI-505 starting one day after tumor cell injection reduced myeloma tumor growth in mice xenografted with ICAM-1-expressing cell lines EJM, RPMI-8226, and NCI-H929 by 98%, 96%, and 99%, respectively (FIGS. 17A and B).
(§5) All studies were conducted in accordance with guidelines of the Lund University Hospital, Sweden or University of Utah, Salt Lake City, USA following approval from the local ethical committee for animal care and use. BI-505 efficacy and potency was examined in subcutaneous and disseminated, prophylactic and therapeutic, experimental MM models comprising myeloma cell lines RPMI-8226, U266, EJM and OPM-2. The in vivo efficacy of BI-505 was compared to clinically approved drugs dexamethasone, melphalan, bortezomib and revlimid used at clinically relevant doses in therapeutic disseminated models comprising RPMI-8226 or primary patient myeloma cells, the latter following injection of patient cells in implanted of human fetal bone in SCID mice. For subcutaneous grafting, 1-5×10^6 tumor cells (RPMI-8226, NCI-H929, EJM, OPM-2, ARH-77, or Daudi) were subcutaneously injected at a volume of 100 μl into the left flank of anesthetized mice as described in the Supplemental Information. […] Treatment with saline, isotype control IgG, bortezomib, lenalidomide, dexamethasone, or BI-505 started on day 5 (RPMI-8226). Treatment with melphalan started on day 10. BI-505 or isotype IgG mAb was administered i.v. at 2 mg/kg/inj twice weekly for 8 weeks; bortezomib at 1 mg/kg/inj once weekly for 8 weeks; lenalidomide orally at 2 mg/kg/inj for 2 cycles consisting of 5 days of treatment and 2 days of wash out; melphalan i.v. at 3 mg/kg/inj once weekly for 8 weeks; and dexamethasone at 6 mg/kg/inj three times weekly for 2 weeks. […] The role of macrophages and NK cells for BI-505 in vivo antitumor activity was assessed using anti-asialo antibody treatment, clodronate liposome treatment or NK-cell deficient mice. […]
(§6) Treatment with antibodies by intraperitoneal injection started either 1 day after cell inoculation (prophylactic model) or when tumors reached approximately 100 mm^3 (established model). […] Macrophage and NK cell depletion was assessed upon termination of tumor bearing mice exposed to effector cell depleting agents (see above), spleens were removed and splenocytes isolated by mincing through a cell strainer (70 μm nylon mesh, BD Falcon 352350), erythrocytes were removed by lysis according to manufacturer (BD Pharm Lyse 555899, BD Biosciences).

NCI-H929 = experiment: SCID/xenograft MM model, subcutaneous; format: in vivo, mouse; conditions: NCI-H929 (ICAM-1+), 2 mg/kg twice weekly from one day after tumor cell injection
Experimental: as §4, §5, §6

RPMI-8226 = experiment: SCID/xenograft MM model, subcutaneous; format: in vivo, mouse; conditions: RPMI-8226 (ICAM-1+), 2 mg/kg twice weekly from one day after tumor cell injection
Experimental: as §4, §5, §6

OPM-2 = experiment: SCID/xenograft MM model, subcutaneous; format: in vivo, mouse; conditions: ICAM-1-negative OPM-2, 2 mg/kg twice weekly
Experimental: as §4, §5, §6

B1: B11: fully human IgG1 antibody specific for ICAM-1; VH and VL sequences of FIG. 10 (SEQ ID NOs. 6 and 8) (antibody, listed as Homo sapiens, V domains shown)
VH: EVQLLESGGGLVQPGGSLRLSCAASGFTFSNAWMSWVRQAPGKGLEWVAFIWYDGSNKYYADSVKGRFTISRDNSKNTLYLQMNSLRAEDTAVYYCARYSGWYFDYWGQGTLVTVSS
VL: QSVLTQPPSASGTPGQRVTISCTGSSSNIGAGYDVHWYQQLPGTAPKLLIYDNNNRPSGVPDRFSGSKSGTSASLAISGLRSEDEADYYCQSYDSSLSAWLFGGGTKLTVLG
DU145 cells
  Apoptosis Induction: induce apoptosis
MDA MB 435 cells
  Apoptosis Induction: induce apoptosis
[1]
  cell death in normal cells: did not induce cell death
EJM
  reduction of myeloma tumor growth: 98%
NCI-H929
  reduction of myeloma tumor growth: 99%
RPMI-8226
  reduction of myeloma tumor growth: 96%
OPM-2
  tumor growth: did not affect tumor growth
